Assay results from the domain aggregation screens of Martell et al. (2025).

Test: soluble fraction after stress (log2 fold change); higher = more stays soluble; pooled small domains, quantitative proteomics
Conditions: stress: 75 degC
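Further: 20 min heating vs room temperature control held 20 min.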

Row | Sequence | soluble fraction (log2)
1 | HMGKKGPELSENEKSIFSILSKSGSMDLTTLKEASGLSNKQWDKGIKGLGKHGLTKVIKTEDALLVEVV | 0.0471
2 | HMGKKYVPGMAVKLSAVPLYAASTSKVPSTHVTGTYYLWDDEVVRGRLRITNLKSRVGISGQVTGWIDKDR | -1.95
3 | HMGKNIQAIRYKNNMTQDQVVAKLNLMGISITKSTYAKLETNRMNIKASELVALAKLFHTDINAFFSG | -3.12
4 | HMGKNYYEILGITKSASEEQVRKAFRGLAMEWHPDRNRSADSEERFKEINEAYQVLIDPKKRQMYDQYGR | 0.394
5 | HMGKPSSEELEALGRRTLEENVDVVEEILGGRDPKGKKIKYLEGLMMRALRGQETPEAVRRTLEELIFK | -0.132
6 | HMGKRGKEMQTAVLAILRASDRPYSAYELLESLKDIYPKIAPPTVYRALAALTQRGQIRRLESLNAFI | -0.221
7 | HMGKRKDFTYTGNYFSEYKNQTFPSLSSFLKLVGKYENYGTIKRRVRFGWDIDEAILRENIN | -1.94
8 | HMGKSKAAQSSLVRSIMHQISDKNRGPMPLSEIIDRASIQSIDEAIVRSLVSRMKEQGEIYEPSLGTYEF | -0.105
9 | HMGKTIIQLATDYLIKNMQPKSLHDIESYVLTRKKIKKSSIGAILLSKPNIFGRTEDGLFGLRIWNNFQYT | -1.37
10 | HMGKTRSTDRTRRAILDAASDLMGKHGTSVSLARIAEAAGMSKGGLLHHFPSRNDLIRALGED | 0.011
11 | HMGKVNTRNRNEGKFYKNGKKKPANWEYRFEAAPVNGKRQQISDAGYPTEKAAYEAGIAAYEKYNSAGSVN | -0.0957
12 | HMGKVTILSNPVKDALVIMGLHNAETIDVRLFDNTGRLVMQGSQSRMDISSLSPGLYILQVNGKILKVIK | -3.2
13 | HMGLASEVKTEDVLNEEKYDFEPDLIGNNNEAIYQNKQTGSYVLFDRNQNKVTKVLSAGEVLNHSKYNE | -0.138
14 | HMGLDQNTLDRVDDINDTLATGIEIGPETRGTIEELNETLANGLKAGFDEETLARVDELLRVVEDGLK | 0.0586
15 | HMGLGQRIKARREALGLSQARLGEAVGVSLQAVSNWERDEYLPDTARLPLIARALGLTPGQLME | -0.182
16 | HMGLKDTEVYMPDVRGLIEEEAQTKLKASFLTMKVSYTSSDEVKKGYVISQAPSADSVVLKGASVTVIVS | -2.56
17 | HMGLLVPELTAEENVSLAAMIAGVPRQQARSISADLLNRLGLGQMLDRRMGEMSGGQAQRVAIAPIYGKF | -0.408
18 | HMGLNVSYRMDGENVVETIIFSGATMIRTVTPTGTMTIKTIENGSTSTAKVNADYSVYKKIYEAQY | -2.69
19 | HMGLPLETVVTHATKLEIVRDGRVSGSIGLSAGVKVDVIALEGDNLQVRYRSLSGRVPVAHTGLAALA | -1.58
20 | HMGLPPIATGVNDNMSFSQAFAAARAEVGAGGAFEWHGRVYGTYYKNEWDGMSAQERHDFEIAAIRGS | -0.0369
21 | HMGLSIPLMGAKASDIEISTLNDEVQRKLKIIVKEQGHENLQRVVPLPSEAREIQAHFINGRLHLR | 0.0158
22 | HMGLYPYSGTPADNQEANERRIFDIYSTHLERIFSDFSGATLRTKRLVLRLMQELVHSDPVRMAGILDEL | 0.0962
23 | HMGMAQELMESRLTAVFTSGKDQLAVLQRKDGSTLKLGADSKPWRIESFDGRKAVFVSADQQRVERLL | -0.342
24 | HMGMGIGQIIKEKRTALKMTQNELAERLGVSQQSVTGWENNAAVPRESAVRGMMDIFGLSRNELFGEP | 0.389
25 | HMGMMTLGQRIAQYRKAMGISQEELGGRLGVSRQAVSKWETDAAAPDMENLLALAREFGVSVAELTETP | -0.187
26 | HMGMTRPLFVTDPGLVRIGLVSPIFEKLGSGKLSPQLFDQVKEDPPEQTVFDGVEFARETGIDGVIGFG | 0.00642
27 | HMGMVDKSMYSRYDVGDLVKVLRGPLEGSEGHITEINTDTGTVKVETVFFGRSTVVEVDFSEIDK | -1.37
